Data published in PMC9063426, “MAP kinases differentially bind and phosphorylate NOS3 via two unique NOS3 sites” (FEBS Open Bio, 2022).
Blank lines part the entries; values can stand above or below the binder they belong to. Where no end group is shown, it is not given here. The star is where a group is joined. Biotin = O=C1N[C@H]2[C@H](CS[C@H]2CCCCC(=O)*)N1

T1: Nitric oxide synthase 3 (NOS3), bovine, full-length (bovine, UniProt P29473 1-1205)
T1 construct: Nitric oxide synthase 3 (endothelial NOS), bovine, heterologously expressed in E. coli; called full-length NOS3 in the abstract and discussion; also called eNOS; endothelial nitric oxide synthase; source: E. coli BL21(DE3), purified
T1 sequence (looked up): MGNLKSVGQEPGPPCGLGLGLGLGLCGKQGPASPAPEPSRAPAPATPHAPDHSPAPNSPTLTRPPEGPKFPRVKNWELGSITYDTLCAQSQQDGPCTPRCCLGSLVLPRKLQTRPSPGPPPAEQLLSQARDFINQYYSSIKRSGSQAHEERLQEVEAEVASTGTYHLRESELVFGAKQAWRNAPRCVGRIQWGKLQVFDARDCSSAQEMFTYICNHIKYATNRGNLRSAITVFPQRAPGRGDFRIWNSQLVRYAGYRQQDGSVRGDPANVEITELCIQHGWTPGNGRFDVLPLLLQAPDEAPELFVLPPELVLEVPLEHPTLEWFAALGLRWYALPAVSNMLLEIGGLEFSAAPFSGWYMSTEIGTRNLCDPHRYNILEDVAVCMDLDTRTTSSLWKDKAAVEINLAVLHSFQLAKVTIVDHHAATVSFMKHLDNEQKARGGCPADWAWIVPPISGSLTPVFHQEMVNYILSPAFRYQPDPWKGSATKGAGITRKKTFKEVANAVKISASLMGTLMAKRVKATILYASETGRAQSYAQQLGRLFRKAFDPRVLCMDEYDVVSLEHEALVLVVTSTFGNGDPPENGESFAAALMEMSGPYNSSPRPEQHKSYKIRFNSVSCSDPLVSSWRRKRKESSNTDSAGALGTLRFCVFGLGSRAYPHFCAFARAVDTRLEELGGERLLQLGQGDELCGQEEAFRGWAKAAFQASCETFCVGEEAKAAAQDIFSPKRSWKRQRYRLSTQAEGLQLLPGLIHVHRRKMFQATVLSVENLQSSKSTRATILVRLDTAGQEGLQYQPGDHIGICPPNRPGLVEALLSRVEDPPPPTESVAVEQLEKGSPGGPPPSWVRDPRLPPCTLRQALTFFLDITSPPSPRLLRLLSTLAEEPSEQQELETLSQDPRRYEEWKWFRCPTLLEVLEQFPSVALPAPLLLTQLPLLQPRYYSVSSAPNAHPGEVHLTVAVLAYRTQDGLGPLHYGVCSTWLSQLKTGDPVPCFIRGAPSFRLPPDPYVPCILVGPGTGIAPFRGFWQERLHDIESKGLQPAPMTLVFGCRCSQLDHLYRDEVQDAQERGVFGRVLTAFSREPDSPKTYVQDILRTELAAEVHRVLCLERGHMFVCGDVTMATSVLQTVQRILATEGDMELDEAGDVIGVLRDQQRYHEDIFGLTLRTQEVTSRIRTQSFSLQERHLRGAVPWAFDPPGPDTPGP

B1: NOS3 (bovine), full-length (enzyme, UniProt P29473 1-1205, looked up)
chain: T1 sequence (looked up)
notes: Nitric oxide synthase 3 (endothelial NOS), bovine, heterologously expressed; called full-length in the abstract and discussion; also called nitric oxide synthase 3; eNOS; source: E. coli BL21(DE3), purified
B2: Active GST-JNK1α1 (SignalChem), biotinylated (enzyme, UniProt P45983-2 1-384, looked up)
chain: MSRSKRDNNFYSVEIGDSTFTVLKRYQNLKPIGSGAQGIVCAAYDAILERNVAIKKLSRPFQNQTHAKRAYRELVLMKCVNHKNIIGLLNVFTPQKSLEEFQDVYIVMELMDANLCQVIQMELDHERMSYLLYQMLCGIKHLHSAGIIHRDLKPSNIVVKSDCTLKILDFGLARTAGTSFMMTPYVVTRYYRAPEVILGMGYKENVDLWSVGCIMGEMVCHKILFPGRDYIDQWNKVIEQLGTPCPEFMKKLQPTVRTYVENRPKYAGYSFEKLFPDVLFPADSEHNKLKASQARDLLSKMLVIDASKRISVDEALQHPYINVWYDPSEAEAPPPKIPDKQLDEREHTIEEWKELIYKEVMDLEERTKNGVIRGQPSPLAQVQQ
modifications: active (phosphorylated) form; biotinylated by amine crosslinking to NHS-LC-LC-biotin, 5 : 1 molar ratio of biotin to protein
notes: also called c-Jun N-terminal kinase; source: bought: SignalChem (Lot #X561-2)
B3: Active GST-JNK1α1 (SignalChem) (enzyme, UniProt P45983-2 1-384, looked up)
chain: B2 chain
modifications: active (phosphorylated) form, sites not given; biotin by amine crosslinking to NHS-LC-LC-biotin (5:1 biotin to protein)
notes: Biotinylated and held on streptavidin sensors for the NOS3 experiment; also called c-Jun N-terminal kinase; source: bought: SignalChem (JNK1, Lot #X561-2), GST-purified, active
B4: NOS3 NtMAP peptide (N-terminal MAP kinase site), biotinylated (peptide)
peptide: Biotin-CTPRRCLGSLVFPRKLQGRPSPGPPA
modifications: cysteine pairing not given here
notes: Human NOS3, N-terminal MAP kinase (NtMAP) site with the S114 site, unphosphorylated; source: synthetic peptide (Biomatik)
B5: NtMAP peptide (NOS3 N-terminal MAP kinase site) (peptide)
peptide: Biotin-CTPRRCLGSLVFPRKLQGRPSPGPPA
modifications: cysteine pairing not given here
notes: Human NOS3, N-terminal MAP kinase (NtMAP) site with the S114 site; source: synthetic peptide, bought: Biomatik
B6: AI peptide (NOS3 autoinhibitory loop site) (peptide)
peptide: Biotin-YKIRFNSISCSDPLVSSWRRKRKESSNTDSA
notes: source: synthetic peptide, bought: Biomatik

What was measured:
Details in all cases: both partners purified
[1] = target: B3; test: BLI; biotinylated active GST-JNK1α1 (or the fusion partner alone as control) on streptavidin sensors, NOS3 as analyte at 25-800 nM; 25 °C; 50 mM Tris pH 7.4, 10 mM NaCl, 10% glycerol, 0.01% Tween-20; global one-state association-then-dissociation fit
[2] = target: p38α, inactive (unphosphorylated), His-purified (UniProt Q16539 1-360); test: BLI; N-terminally biotinylated NOS3 peptides on streptavidin sensors, inactive MAP kinases as analytes (31 to 1000 nM); 25 °C; PBS with 10% glycerol, 0.005% tween, 1 mM DTT; global one-state association-then-dissociation fit
Target sequence in this assay (Q16539 whole entry): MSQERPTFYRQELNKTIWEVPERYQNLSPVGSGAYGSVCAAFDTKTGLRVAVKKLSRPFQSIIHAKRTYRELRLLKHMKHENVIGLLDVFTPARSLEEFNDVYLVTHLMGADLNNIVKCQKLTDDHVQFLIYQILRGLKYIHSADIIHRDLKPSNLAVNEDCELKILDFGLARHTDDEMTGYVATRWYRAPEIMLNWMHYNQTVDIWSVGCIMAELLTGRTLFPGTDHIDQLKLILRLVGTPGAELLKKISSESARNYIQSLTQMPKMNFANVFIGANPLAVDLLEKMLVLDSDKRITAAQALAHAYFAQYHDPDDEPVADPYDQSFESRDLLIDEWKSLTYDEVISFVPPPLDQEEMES

[3] = target: T1, Nitric oxide synthase 3 (NOS3), bovine, …; test: BLI; biotinylated active GST-JNK1α1 on streptavidin sensors, NOS3 as analyte (25 to 800 nM); 25 °C; 50 mM Tris pH 7.4, 10 mM NaCl, 10% glycerol, 0.01% Tween-20; global one-state association-then-dissociation fit
[4] = target: B1; test: BLI; biotinylated active GST-JNK1α1 (or the fusion partner alone as control) on streptavidin sensors, NOS3 as analyte at 25-800 nM; 25 °C; 50 mM Tris pH 7.4, 10 mM NaCl, 10% glycerol, 0.01% Tween-20; global one-state association-then-dissociation fit
[5] = target: p38α, inactive (unphosphorylated), His-purified (UniProt Q16539 1-360); test: BLI; N-terminally biotinylated NOS3 peptides on streptavidin sensors, inactive MAP kinases as analytes at 31-1000 nM; 25 °C; PBS with 10% glycerol, 0.005% tween, 1 mM DTT; global one-state association-then-dissociation fit

Binder: B1
- KD (fit without the 400 nM trace) [1]: 18 nM

- koff [2]: 0.000968 s⁻¹
- kon [2]: 15900 M⁻¹ s⁻¹
Binder: Biotin-YKIRFNSISCSDPLVSSWRRKRKESSNTDSA (source: synthetic peptide (Biomatik)) [NOS3 AI peptide (autoinhibitory loop site), biotinylated]

Binder: B2
- koff [3]: 6.19e-05 s⁻¹

Binder: B3
- Kd [4]: 15 nM
- koff [4]: 6.2e-05 s⁻¹
- kon [4]: 4110 M⁻¹ s⁻¹

Binder: B4
- koff [2]: 0.000534 s⁻¹
- kon [2]: 17300 M⁻¹ s⁻¹

Binder: B5
- Kd [5]: 31 nM
- koff [5]: 0.00053 s⁻¹
- kon [5]: 17000 M⁻¹ s⁻¹

Binder: B6
- Kd [5]: 61 nM
- koff [5]: 0.00096 s⁻¹
- kon [5]: 16000 M⁻¹ s⁻¹
